# From the Human Domainome abundance scans (Beltran et al. 2025)
# ± gives the uncertainty stated by the source.
# B1: Gamma-crystallin C, residues 4 to 79; numbered along this chain, P07315 (parent)
# chain: ITFYEDRAFQGRSYETTTDCPNLQPYFSRCNSIRVESGCWMLYERPNYQGQQYLLRRGEYPDYQQWMGLSDSIRSC
# Variants of: B1
# Assay: abundance fitness (aPCA) (normalised: wild type 0, dead -1); higher = more abundant; growth selection in yeast, the domain comes from the species named
# Settings: Homo sapiens
row,Variant,abundance fitness
1,ITFYEDRAFQGRSYATTTDCPNLQPYFSRCNSIRVESGCWMLYERPNYQGQQYLLRRGEYPDYQQWMGLSDSIRSC [E15A],-0.113 ± 0.14
2,ITFYEDRAFQGRSYDTTTDCPNLQPYFSRCNSIRVESGCWMLYERPNYQGQQYLLRRGEYPDYQQWMGLSDSIRSC [E15D],-0.064 ± 0.12
3,ITFYEDRAFQGRSYGTTTDCPNLQPYFSRCNSIRVESGCWMLYERPNYQGQQYLLRRGEYPDYQQWMGLSDSIRSC [E15G],-0.072 ± 0.057
4,ITFYEDRAFQGRSYHTTTDCPNLQPYFSRCNSIRVESGCWMLYERPNYQGQQYLLRRGEYPDYQQWMGLSDSIRSC [E15H],0.066 ± 0.26
5,ITFYEDRAFQGRSYITTTDCPNLQPYFSRCNSIRVESGCWMLYERPNYQGQQYLLRRGEYPDYQQWMGLSDSIRSC [E15I],0.066 ± 0.23
6,ITFYEDRAFQGRSGETTTDCPNLQPYFSRCNSIRVESGCWMLYERPNYQGQQYLLRRGEYPDYQQWMGLSDSIRSC [Y14G],-0.497 ± 0.086
7,ITFYEDRAFQGRSVETTTDCPNLQPYFSRCNSIRVESGCWMLYERPNYQGQQYLLRRGEYPDYQQWMGLSDSIRSC [Y14V],-0.216 ± 0.092
8,ITFYEDRAFQGRSKETTTDCPNLQPYFSRCNSIRVESGCWMLYERPNYQGQQYLLRRGEYPDYQQWMGLSDSIRSC [Y14K],-0.163 ± 0.1
9,ITFYEDRAFQGRSIETTTDCPNLQPYFSRCNSIRVESGCWMLYERPNYQGQQYLLRRGEYPDYQQWMGLSDSIRSC [Y14I],0.003 ± 0.098
10,ITFYEDRAFQGRSHETTTDCPNLQPYFSRCNSIRVESGCWMLYERPNYQGQQYLLRRGEYPDYQQWMGLSDSIRSC [Y14H],-0.117 ± 0.12
11,ITFYEDRAFQGRSTETTTDCPNLQPYFSRCNSIRVESGCWMLYERPNYQGQQYLLRRGEYPDYQQWMGLSDSIRSC [Y14T],-0.167 ± 0.16
12,ITFYEDRAFQGRSWETTTDCPNLQPYFSRCNSIRVESGCWMLYERPNYQGQQYLLRRGEYPDYQQWMGLSDSIRSC [Y14W],0.112 ± 0.09
13,ITFYEDRAFQGRSMETTTDCPNLQPYFSRCNSIRVESGCWMLYERPNYQGQQYLLRRGEYPDYQQWMGLSDSIRSC [Y14M],0.423 ± 0.29
14,ITFYEDRAFQGRSCETTTDCPNLQPYFSRCNSIRVESGCWMLYERPNYQGQQYLLRRGEYPDYQQWMGLSDSIRSC [Y14C],-0.227 ± 0.15
15,ITFYEDRAFQGRSRETTTDCPNLQPYFSRCNSIRVESGCWMLYERPNYQGQQYLLRRGEYPDYQQWMGLSDSIRSC [Y14R],-0.05 ± 0.054
16,ITFYEDRAFQGRSAETTTDCPNLQPYFSRCNSIRVESGCWMLYERPNYQGQQYLLRRGEYPDYQQWMGLSDSIRSC [Y14A],-0.024 ± 0.1
17,ITFYEDRAFQGRSQETTTDCPNLQPYFSRCNSIRVESGCWMLYERPNYQGQQYLLRRGEYPDYQQWMGLSDSIRSC [Y14Q],-0.27 ± 0.22
18,ITFYEDRAFQGRSLETTTDCPNLQPYFSRCNSIRVESGCWMLYERPNYQGQQYLLRRGEYPDYQQWMGLSDSIRSC [Y14L],-0.101 ± 0.072
19,ITFYEDRAFQGRSPETTTDCPNLQPYFSRCNSIRVESGCWMLYERPNYQGQQYLLRRGEYPDYQQWMGLSDSIRSC [Y14P],-0.922 ± 0.19
20,ITFYEDRAFQGRSDETTTDCPNLQPYFSRCNSIRVESGCWMLYERPNYQGQQYLLRRGEYPDYQQWMGLSDSIRSC [Y14D],-0.895 ± 0.26
21,ITFYEDRAFQGRSSETTTDCPNLQPYFSRCNSIRVESGCWMLYERPNYQGQQYLLRRGEYPDYQQWMGLSDSIRSC [Y14S],-0.042 ± 0.079
22,ITFYEDRAFQGRSFETTTDCPNLQPYFSRCNSIRVESGCWMLYERPNYQGQQYLLRRGEYPDYQQWMGLSDSIRSC [Y14F],0.114 ± 0.14
23,ITFYEDRAFQGRSNETTTDCPNLQPYFSRCNSIRVESGCWMLYERPNYQGQQYLLRRGEYPDYQQWMGLSDSIRSC [Y14N],-0.154 ± 0.23
24,ITFYEDRAFQGRSEETTTDCPNLQPYFSRCNSIRVESGCWMLYERPNYQGQQYLLRRGEYPDYQQWMGLSDSIRSC [Y14E],-0.375 ± 0.12

row,Variant,abundance fitness
1,ITFYEDRAFQGASYETTTDCPNLQPYFSRCNSIRVESGCWMLYERPNYQGQQYLLRRGEYPDYQQWMGLSDSIRSC [R12A],-0.058 ± 0.071
2,ITFYEDRAFQGLSYETTTDCPNLQPYFSRCNSIRVESGCWMLYERPNYQGQQYLLRRGEYPDYQQWMGLSDSIRSC [R12L],-0.034 ± 0.053
3,ITFYEDRAFQGKSYETTTDCPNLQPYFSRCNSIRVESGCWMLYERPNYQGQQYLLRRGEYPDYQQWMGLSDSIRSC [R12K],0.031 ± 0.1
4,ITFYEDRAFQGCSYETTTDCPNLQPYFSRCNSIRVESGCWMLYERPNYQGQQYLLRRGEYPDYQQWMGLSDSIRSC [R12C],-0.063 ± 0.063
5,ITFYEDRAFQGESYETTTDCPNLQPYFSRCNSIRVESGCWMLYERPNYQGQQYLLRRGEYPDYQQWMGLSDSIRSC [R12E],0.066 ± 0.072
6,ITFYEDRAFQGTSYETTTDCPNLQPYFSRCNSIRVESGCWMLYERPNYQGQQYLLRRGEYPDYQQWMGLSDSIRSC [R12T],0.024 ± 0.082
7,ITFYEDRAFQGQSYETTTDCPNLQPYFSRCNSIRVESGCWMLYERPNYQGQQYLLRRGEYPDYQQWMGLSDSIRSC [R12Q],0.022 ± 0.083
8,ITFYEDRAFQGVSYETTTDCPNLQPYFSRCNSIRVESGCWMLYERPNYQGQQYLLRRGEYPDYQQWMGLSDSIRSC [R12V],-0.039 ± 0.056
9,ITFYEDRAFQGISYETTTDCPNLQPYFSRCNSIRVESGCWMLYERPNYQGQQYLLRRGEYPDYQQWMGLSDSIRSC [R12I],0.017 ± 0.077
10,ITFYEDRAFQGMSYETTTDCPNLQPYFSRCNSIRVESGCWMLYERPNYQGQQYLLRRGEYPDYQQWMGLSDSIRSC [R12M],-0.043 ± 0.079
11,ITFYEDRAFQGFSYETTTDCPNLQPYFSRCNSIRVESGCWMLYERPNYQGQQYLLRRGEYPDYQQWMGLSDSIRSC [R12F],0.026 ± 0.11
12,ITFYEDRAFQGSSYETTTDCPNLQPYFSRCNSIRVESGCWMLYERPNYQGQQYLLRRGEYPDYQQWMGLSDSIRSC [R12S],-0.033 ± 0.048
13,ITFYEDRAFQGYSYETTTDCPNLQPYFSRCNSIRVESGCWMLYERPNYQGQQYLLRRGEYPDYQQWMGLSDSIRSC [R12Y],-0.022 ± 0.15
14,ITFYEDRAFQGPSYETTTDCPNLQPYFSRCNSIRVESGCWMLYERPNYQGQQYLLRRGEYPDYQQWMGLSDSIRSC [R12P],-0.053 ± 0.076
15,ITFYEDRAFQGRKYETTTDCPNLQPYFSRCNSIRVESGCWMLYERPNYQGQQYLLRRGEYPDYQQWMGLSDSIRSC [S13K],0.148 ± 0.17
16,ITFYEDRAFQGRFYETTTDCPNLQPYFSRCNSIRVESGCWMLYERPNYQGQQYLLRRGEYPDYQQWMGLSDSIRSC [S13F],-0.16 ± 0.18
17,ITFYEDRAFQGRIYETTTDCPNLQPYFSRCNSIRVESGCWMLYERPNYQGQQYLLRRGEYPDYQQWMGLSDSIRSC [S13I],0.028 ± 0.15
18,ITFYEDRAFQGRHYETTTDCPNLQPYFSRCNSIRVESGCWMLYERPNYQGQQYLLRRGEYPDYQQWMGLSDSIRSC [S13H],-0.025 ± 0.15
19,ITFYEDRAFQGRAYETTTDCPNLQPYFSRCNSIRVESGCWMLYERPNYQGQQYLLRRGEYPDYQQWMGLSDSIRSC [S13A],-0.051 ± 0.085
20,ITFYEDRAFQGRMYETTTDCPNLQPYFSRCNSIRVESGCWMLYERPNYQGQQYLLRRGEYPDYQQWMGLSDSIRSC [S13M],-0.075 ± 0.077
21,ITFYEDRAFQGRLYETTTDCPNLQPYFSRCNSIRVESGCWMLYERPNYQGQQYLLRRGEYPDYQQWMGLSDSIRSC [S13L],-0.157 ± 0.091
22,ITFYEDRAFQGRQYETTTDCPNLQPYFSRCNSIRVESGCWMLYERPNYQGQQYLLRRGEYPDYQQWMGLSDSIRSC [S13Q],0.061 ± 0.1
23,ITFYEDRAFQGRVYETTTDCPNLQPYFSRCNSIRVESGCWMLYERPNYQGQQYLLRRGEYPDYQQWMGLSDSIRSC [S13V],0.058 ± 0.1
24,ITFYEDRAFQGRRYETTTDCPNLQPYFSRCNSIRVESGCWMLYERPNYQGQQYLLRRGEYPDYQQWMGLSDSIRSC [S13R],0.03 ± 0.066

row,Variant,abundance fitness
1,ITFYEDRAFQGRTYETTTDCPNLQPYFSRCNSIRVESGCWMLYERPNYQGQQYLLRRGEYPDYQQWMGLSDSIRSC [S13T],-0.043 ± 0.13
2,ITFYEDRAFQGREYETTTDCPNLQPYFSRCNSIRVESGCWMLYERPNYQGQQYLLRRGEYPDYQQWMGLSDSIRSC [S13E],-0.104 ± 0.09
3,ITFYEDRAFQGRCYETTTDCPNLQPYFSRCNSIRVESGCWMLYERPNYQGQQYLLRRGEYPDYQQWMGLSDSIRSC [S13C],-0.058 ± 0.11
4,ITFYEDRAFQGRGYETTTDCPNLQPYFSRCNSIRVESGCWMLYERPNYQGQQYLLRRGEYPDYQQWMGLSDSIRSC [S13G],-0.024 ± 0.066
5,ITFYEDRAFQGRYYETTTDCPNLQPYFSRCNSIRVESGCWMLYERPNYQGQQYLLRRGEYPDYQQWMGLSDSIRSC [S13Y],-0.271 ± 0.2
6,ITFYEDRAFQGRDYETTTDCPNLQPYFSRCNSIRVESGCWMLYERPNYQGQQYLLRRGEYPDYQQWMGLSDSIRSC [S13D],-0.122 ± 0.14
7,ITFYEDRAFVGRSYETTTDCPNLQPYFSRCNSIRVESGCWMLYERPNYQGQQYLLRRGEYPDYQQWMGLSDSIRSC [Q10V],0.033 ± 0.073
8,ITFYEDRAFWGRSYETTTDCPNLQPYFSRCNSIRVESGCWMLYERPNYQGQQYLLRRGEYPDYQQWMGLSDSIRSC [Q10W],-0.159 ± 0.091
9,ITFYEDRAFYGRSYETTTDCPNLQPYFSRCNSIRVESGCWMLYERPNYQGQQYLLRRGEYPDYQQWMGLSDSIRSC [Q10Y],-0.107 ± 0.22
10,ITFYEDRAFTGRSYETTTDCPNLQPYFSRCNSIRVESGCWMLYERPNYQGQQYLLRRGEYPDYQQWMGLSDSIRSC [Q10T],0.034 ± 0.15
11,ITFYEDRAFQMRSYETTTDCPNLQPYFSRCNSIRVESGCWMLYERPNYQGQQYLLRRGEYPDYQQWMGLSDSIRSC [G11M],-0.504 ± 0.14
12,ITFYEDRAFQCRSYETTTDCPNLQPYFSRCNSIRVESGCWMLYERPNYQGQQYLLRRGEYPDYQQWMGLSDSIRSC [G11C],-0.299 ± 0.12
13,ITFYEDRAFQERSYETTTDCPNLQPYFSRCNSIRVESGCWMLYERPNYQGQQYLLRRGEYPDYQQWMGLSDSIRSC [G11E],-0.321 ± 0.21
14,ITFYEDRAFQVRSYETTTDCPNLQPYFSRCNSIRVESGCWMLYERPNYQGQQYLLRRGEYPDYQQWMGLSDSIRSC [G11V],-0.393 ± 0.06
15,ITFYEDRAFQFRSYETTTDCPNLQPYFSRCNSIRVESGCWMLYERPNYQGQQYLLRRGEYPDYQQWMGLSDSIRSC [G11F],-0.919 ± 0.39
16,ITFYEDRAFQNRSYETTTDCPNLQPYFSRCNSIRVESGCWMLYERPNYQGQQYLLRRGEYPDYQQWMGLSDSIRSC [G11N],0.162 ± 0.49
17,ITFYEDRAFQLRSYETTTDCPNLQPYFSRCNSIRVESGCWMLYERPNYQGQQYLLRRGEYPDYQQWMGLSDSIRSC [G11L],-0.41 ± 0.072
18,ITFYEDRAFQSRSYETTTDCPNLQPYFSRCNSIRVESGCWMLYERPNYQGQQYLLRRGEYPDYQQWMGLSDSIRSC [G11S],-0.142 ± 0.079
19,ITFYEDRAFQRRSYETTTDCPNLQPYFSRCNSIRVESGCWMLYERPNYQGQQYLLRRGEYPDYQQWMGLSDSIRSC [G11R],-0.155 ± 0.047
20,ITFYEDRAFQQRSYETTTDCPNLQPYFSRCNSIRVESGCWMLYERPNYQGQQYLLRRGEYPDYQQWMGLSDSIRSC [G11Q],-0.421 ± 0.15
21,ITFYEDRAFQYRSYETTTDCPNLQPYFSRCNSIRVESGCWMLYERPNYQGQQYLLRRGEYPDYQQWMGLSDSIRSC [G11Y],-0.591 ± 0.19
22,ITFYEDRAFQWRSYETTTDCPNLQPYFSRCNSIRVESGCWMLYERPNYQGQQYLLRRGEYPDYQQWMGLSDSIRSC [G11W],-0.955 ± 0.19
23,ITFYEDRAFQDRSYETTTDCPNLQPYFSRCNSIRVESGCWMLYERPNYQGQQYLLRRGEYPDYQQWMGLSDSIRSC [G11D],-0.5 ± 0.18
24,ITFYEDRAFQHRSYETTTDCPNLQPYFSRCNSIRVESGCWMLYERPNYQGQQYLLRRGEYPDYQQWMGLSDSIRSC [G11H],-0.49 ± 0.24
